Measurements: article PMC4084651 (DNA repair, 2013)
Read-outs that look alike come from different tables or passages of the source.

Experiments:
[1] = target: SsoRadA (Saccharolobus solfataricus, UniProt Q55075, K120R); assay: filter binding, saturation binding curve
[2] = target: T1, SsoRadA (Saccharolobus solfataricus, UniProt Q55075); assay: filter binding, saturation binding curve
T1 sequence (Q55075 1-324): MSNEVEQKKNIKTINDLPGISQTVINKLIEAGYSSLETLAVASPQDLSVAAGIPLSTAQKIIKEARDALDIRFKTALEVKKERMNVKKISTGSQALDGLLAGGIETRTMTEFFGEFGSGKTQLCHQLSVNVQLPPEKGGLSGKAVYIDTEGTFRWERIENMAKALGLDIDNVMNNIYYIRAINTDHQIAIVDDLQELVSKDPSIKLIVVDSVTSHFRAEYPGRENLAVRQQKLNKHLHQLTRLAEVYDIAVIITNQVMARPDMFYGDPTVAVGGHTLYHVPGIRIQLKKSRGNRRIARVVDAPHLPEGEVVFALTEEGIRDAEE

[3] = target: T2, SsoRadA K120A (Sulfolobus solfataricus, UniProt Q55075 1-324, K120A); assay: EMSA
T2 sequence: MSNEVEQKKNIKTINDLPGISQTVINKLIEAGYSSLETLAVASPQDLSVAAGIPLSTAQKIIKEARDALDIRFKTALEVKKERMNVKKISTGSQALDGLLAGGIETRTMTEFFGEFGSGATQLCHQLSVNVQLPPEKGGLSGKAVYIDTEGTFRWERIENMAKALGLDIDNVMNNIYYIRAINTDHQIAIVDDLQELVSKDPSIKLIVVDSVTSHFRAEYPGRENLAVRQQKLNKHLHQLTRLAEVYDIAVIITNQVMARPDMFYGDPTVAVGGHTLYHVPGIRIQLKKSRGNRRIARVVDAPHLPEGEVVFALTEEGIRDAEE

[4] = target: T3, SsoRadA (Sulfolobus solfataricus, UniProt Q55075 1-324); assay: EMSA
T3 sequence: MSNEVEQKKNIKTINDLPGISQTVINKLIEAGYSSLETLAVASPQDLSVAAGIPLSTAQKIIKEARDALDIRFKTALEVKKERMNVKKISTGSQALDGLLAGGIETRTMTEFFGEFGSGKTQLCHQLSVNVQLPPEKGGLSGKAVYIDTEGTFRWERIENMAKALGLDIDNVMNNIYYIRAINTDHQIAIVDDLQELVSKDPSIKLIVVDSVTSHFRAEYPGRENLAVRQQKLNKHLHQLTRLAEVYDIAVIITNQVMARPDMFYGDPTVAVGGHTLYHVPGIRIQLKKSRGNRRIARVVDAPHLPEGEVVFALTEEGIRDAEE

[5] = target: T4, SsoRadA K120R (Sulfolobus solfataricus, UniProt Q55075 1-324, K120R); assay: EMSA
T4 sequence: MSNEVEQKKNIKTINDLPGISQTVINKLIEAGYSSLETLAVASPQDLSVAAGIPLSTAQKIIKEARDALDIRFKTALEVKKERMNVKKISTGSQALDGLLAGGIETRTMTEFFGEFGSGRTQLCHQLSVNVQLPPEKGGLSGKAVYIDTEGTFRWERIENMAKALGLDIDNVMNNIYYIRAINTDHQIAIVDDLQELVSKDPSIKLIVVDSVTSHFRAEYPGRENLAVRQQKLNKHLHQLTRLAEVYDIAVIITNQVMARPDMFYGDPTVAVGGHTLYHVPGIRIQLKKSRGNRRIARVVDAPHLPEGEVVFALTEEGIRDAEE

[6] = target: T2, SsoRadA K120A; assay: EMSA; remark: listed apart in the source
[7] = target: T3, SsoRadA; assay: EMSA; remark: listed apart in the source

Nc1ncnc2c1ncn2[C@@H]1O[C@H](COP(=O)(O)OP(=O)(O)OP(=O)(O)O)[C@@H](O)[C@H]1O [ATP]
Kd [1]: 59.4 ± 9.4 µM | Kd [2]: 2.4 ± 0.6 µM

B1: 63-mer ssDNA (ssDNA)
DNA: ACAGCACCAATGAAATCTATTAAGCTCCTCATCGTCCGCAAAAATATCGTCACCTCAAAAGGA
binding result [3]: binds | binding result [4]: binds

B2: 63-mer dsDNA (dsDNA)
DNA 1: ACAGCACCAATGAAATCTATTAAGCTCCTCATCGTCCGCAAAAATATCGTCACCTCAAAAGGA
DNA 2: TCCTTTTGAGGTGACGATATTTTTGCGGACGATGAGGAGCTTAATAGATTTCATTGGTGCTGT
binding result [5]: no binding | binding result [6]: no binding | binding result [7]: no binding
